This passage reports IC50 results from patent US20240116985A1, “STAPLED PEPTIDES AND METHODS THEREOF” (priority 2020, published 2024).

B1: I-2417 (peptide)
peptide: Ac-[αAllylPro]D[tBuAla][B5(5)]NT[Aib]AFN[PyrS2″][3Thi][34ClF]Q-NH2
modifications: staple 1-4, 4-11; reading uncertain; also: printed as Ac-PL3-Asp-Npg-B5-Asn-Thr-Aib-Ala-Phe-Asn-PyrS2-3Thi-34C1F-Gln-NH2

Starred links: 1 amine or outer side, 2 acyl side, 3 side chain; linkers in the order of their positions; H or OH if unused. Positions of bridges follow the written chain, without caps; N, C: chain ends. Non-standard residues stand in square brackets, D forms with d. Groups on a side chain read outwards from the residue. Primed or numbered codes have the meaning given here. No end group written: not given here. *: point of attachment. PyrS2″ = (S)-3-amino-1-((pent-4-en-1-yloxy)carbonyl)pyrrolidine-3-carboxylic acid (stapling residue), C=CCCCOC(=O)N1CC[C@@](N[*:1])(C(=O)[*:2])C1; B5(4) = 2,2-bis(4-pentenyl)glycine = 2-amino-2-(pent-4-en-1-yl)hept-6-enoic acid (stitching residue), C=CCCCC(CCCC=C)(N[*:1])C(=O)[*:2]; B5(5) = 2,2-bis(4-pentenyl)glycine, 2-amino-2-(pent-4-en-1-yl)hept-6-enoic acid (stitching residue), C=CCCCC(CCCC=C)(N[*:1])C(=O)[*:2]; (CH2NMe2)4SEF = (S)-2-amino-3-(4-(3-(dimethylamino)prop-1-yn-1-yl)phenyl)propanoic acid, CN(C)CC#Cc1ccc(C[C@H](N[*:1])C(=O)[*:2])cc1; TfeGA = (S)-2-amino-3-((carboxymethyl)(2,2,2-trifluoroethyl)amino)propanoic acid, O=C([C@H](CN(CC(=O)[*:3])CC(F)(F)F)N[*:1])[*:2]; PyrS2 = (S)-3-amino-1-((pent-4-en-1-yloxy)carbonyl)pyrrolidine-3-carboxylic acid, C=CCCCOC(=O)N1CC[C@@](N[*:1])(C(=O)[*:2])C1; 5iPr3COOHF = (S)-3-(2-amino-2-carboxyethyl)-5-isopropylbenzoic acid, CC(C)c1cc(C[C@H](N[*:1])C(=O)[*:2])cc(C(=O)[*:3])c1; (3C)TriAzLys = (S)-2-amino-6-(4-propyl-1H-1,2,3-triazol-1-yl)hexanoic acid, CCCc1cn(CCCC[C@H](N[*:1])C(=O)[*:2])nn1; MePpzAsn = (S)-2-amino-4-(4-methylpiperazin-1-yl)-4-oxobutanoic acid, CN1CCN(C(=O)C[C@H](N[*:1])C(=O)[*:2])CC1; F2PipNva = (S)-2-amino-5-(4,4-difluoropiperidin-1-yl)pentanoic acid, O=C([C@H](CCCN1CCC(F)(F)CC1)N[*:1])[*:2]; Lithocholoyl = C[C@H](CCC(=O)*)[C@H]1CC[C@H]2[C@@H]3CC[C@@H]4C[C@H](O)CC[C@]4(C)[C@H]3CC[C@]12C; MorphAsn = (S)-2-amino-4-morpholino-4-oxobutanoic acid, O=C(C[C@H](N[*:1])C(=O)[*:2])N1CCOCC1; B5(3) = 2,2-bis(4-pentenyl)glycine (stitching residue), C=CCCCC(CCCC=C)(N[*:1])C(=O)[*:2]; Me3AdamantC = 3,5,7-trimethyladamantane-1-carbonyl, CC12CC3(C)CC(C)(C1)CC(C(=O)*)(C2)C3; Nva(5-morpholino) = N[C@@H](CCCN1CCOCC1)C(=O)O; Phe(3-COOH) = N[C@@H](Cc1cccc(C(=O)O)c1)C(=O)O; Phe(2-CF3) = N[C@@H](Cc1ccccc1C(F)(F)F)C(=O)O; Bta = N[C@@H](Cc1csc2ccccc12)C(=O)O; Lys(iPr) = CC(C)NCCCC[C@H](N)C(=O)O; αAllylPro = C=CC[C@@]1(C(=O)O)CCCN1; tBuAla = CC(C)(C)C[C@H](N)C(=O)O; 3Thi = N[C@@H](Cc1ccsc1)C(=O)O; Cha = N[C@@H](CC1CCCCC1)C(=O)O; hSer = N[C@@H](CCO)C(=O)O; 34ClF = not defined here; PEG2′ = not defined here; Aib = CC(C)(N)C(=O)O

The target in one experiment is full-length beta-Catenin (Uniprot ID P35222) (Homo sapiens (Human)) (UniProt P35222). Briefly: fluorescence polarization competition; full-length beta-catenin, competitor 5FAM-TCF4(10-53) probe. (In general: In fluorescence polarisation assays a small probe gives low polarisation when free and higher when bound to something large.)
Turning to Ac-[αAllylPro]D[tBuAla][B5(5)]NT[Aib]AFN[PyrS2″][3Thi][Bta]A-NH2 (staple 1-4, 4-11) [I-2411], the IC50 (in general, the concentration at which inhibition is half-maximal) stood at 140 nM. Ac-[αAllylPro]N[Cha][B5(5)]DQQAFL[PyrS2″]F[Bta]K-NH2 (staple 1-4, 4-11) [I-2421] yielded an IC50 of 145 nM. In turn, Ac-[αAllylPro]N[Cha][B5(5)]DQNAFL[PyrS2″]F[Bta]K-NH2 (staple 1-4, 4-11) [I-2420] showed an IC50 of 2120 nM. This IC50 lies about 15-fold higher than the previous one.

Ac-[αAllylPro]D[tBuAla][B5(5)]D[5iPr3COOHF]QAFL[PyrS2″][Phe(2-CF3)][Bta]A-NH2 (staple 1-4, 4-11) [I-2431]: the IC50 worked out at 33 nM. Against the preceding molecule, the IC50 is about 64-fold lower. Ac-[αAllylPro]N[tBuAla][B5(5)]DQAAFH[PyrS2″]F[Bta]Q-NH2 (staple 1-4, 4-11) [I-2440] displayed an IC50 of 360 nM. In the case of Ac-[αAllylPro]N[Cha][B5(5)]DQ[hSer]AFL[PyrS2″]F[Bta]K-NH2 (staple 1-4, 4-11) [I-2419], the IC50 is 203 nM. Ac-[αAllylPro]N[Cha][B5(5)]DQSAFL[PyrS2″]F[Bta]K-NH2 (staple 1-4, 4-11) [I-2422] displayed an IC50 of 3360 nM. The molecule Ac-[αAllylPro]N[Cha][B5(5)]DQ[Lys(iPr)]AFL[PyrS2″]F[Bta][Nva(5-morpholino)]-NH2 (staple 1-4, 4-11) [I-2428] registered an IC50 of 401 nM. The same measure, in the same setting: in the case of Ac-[αAllylPro][hSer][tBuAla][B5(5)]DHAAFT[PyrS2″]F[Bta]Q-NH2 (staple 1-4, 4-11) [I-2438] it was 1760 nM.

As for B1, the IC50 is 158 nM.

Molecule Ac-[αAllylPro]D[tBuAla][B5(5)]NT[Aib]AFN[PyrS2″][3Thi][Bta]F-NH2 (staple 1-4, 4-11) [I-2412] returned an IC50 of 267 nM. Take Ac-[αAllylPro]D[tBuAla][B5(5)]D[Phe(3-COOH)]AAFL[PyrS2″][Phe(2-CF3)][Bta]S[(3C)TriAzLys]-NH2 (staple 1-4, 4-11) [I-2432]: the IC50 turned out to be 60 nM. This IC50 lies about 4.5-fold lower than the previous one. The same measure, in the same setting: in the case of Ac-[αAllylPro][hSer][tBuAla][B5(5)]DQAAFH[PyrS2″]F[Bta]Q-NH2 (staple 1-4, 4-11) [I-2439] it was 2760 nM. The same measure, in the same setting: in the case of Ac-[αAllylPro]D[tBuAla][B5(5)]NT[Aib]AFN[PyrS2″][3Thi][Bta]R-NH2 (staple 1-4, 4-11) [I-2413] it was 133 nM; in that of {2‑(3-(allyloxy)phenyl)acetyl}-PD[tBuAla][B5(5)]D[TfeGA]AAFL[PyrS2][3Thi][Bta]Q-NH2 (staple 4-11, N-4; also: staples hydrogenated, -CH=CH- reduced to -CH2-CH2-) [I-2405], 568 nM; in that of Ac-[αAllylPro]D[tBuAla][B5(5)]NT[Aib]AFL[PyrS2][3Thi][Bta]Q-NH2 (staple 1-4, 4-11) [I-2408], 10000 nM.

Consider Ac-[αAllylPro]N[Cha][B5(5)]DQ[Lys(iPr)]AFL[PyrS2″]F[Bta][MorphAsn]-NH2 (staple 1-4, 4-11) [I-2426], for which the IC50 amounted to 46 nM.

On to Ac-[αAllylPro]D[tBuAla][B5(3)]N[Phe(3-COOH)]AAFN[PyrS2″][3Thi][Bta]Q-NH2 (staple 1-4, 4-11) [I-2335], for which the IC50 was 7 nM. This IC50 is about 6.6-fold lower than that of the molecule before. Still for that read-out and setting: in the case of Ac-[αAllylPro]D[Cha][B5(5)]DQ[Lys(iPr)]AFL[PyrS2″]F[Bta]K-NH2 (staple 1-4, 4-11) [I-2429] it was 10 nM.

The next experiment has the same target. Briefly: fluorescence polarization competition; displacement of 5FAM-TCF4(10-53) from full-length beta-catenin.
Ac-[αAllylPro]D[tBuAla][B5(5)]DDAAFL[PyrS2″][3Thi][Bta]QK(Lithocholoyl)-NH2 (staple 1-4, 4-11) [I-1477]: the IC50 amounted to 148 nM. On the same count and under the same terms, in the case of Ac-[αAllylPro]D[tBuAla][B5(3)]DDAAF[Nva(5-morpholino)][PyrS2″][3Thi][Bta]Q-NH2 (staple 1-4, 4-11) [I-1485] it was 7 nM; in that of Ac-[αAllylPro]D[tBuAla][B5(3)]DD[MePpzAsn]AFL[PyrS2″][3Thi][Bta]Q-NH2 (staple 1-4, 4-11) [I-1484], 30 nM. As to Ac-[αAllylPro]D[tBuAla][B5(3)]DD[F2PipNva]AFL[PyrS2″][3Thi][Bta]Q-NH2 (staple 1-4, 4-11) [I-1482], the IC50 amounted to 7 nM. As to Ac-[αAllylPro]D[tBuAla][B5(4)]DDAK([PEG2′-Lithocholoyl])FL[PyrS2″][3Thi][Bta]Q-NH2 (staple 1-4, 4-11) [I-1474], the IC50 worked out at 41 nM. Regarding Ac-[αAllylPro]DK(Me3AdamantC)[B5(4)]DDAAFL[PyrS2][3Thi][Bta]Q-NH2 (staple 1-4, 4-11) [I-1471], the IC50 was determined as 34 nM. Ac-[αAllylPro]D[tBuAla][B5(3)]DDAAFL[PyrS2″][3Thi][Bta]QK([PEG2′-Me3AdamantC])-NH2 (staple 1-4, 4-11) [I-1480] registered an IC50 of 37 nM. The IC50 values of the last two molecules are within 1.5-fold of each other. In the case of Ac-[αAllylPro]D[tBuAla][B5(3)]DD[Nva(5-morpholino)]AFL[PyrS2″][3Thi][Bta]Q-NH2 (staple 1-4, 4-11) [I-1481], the IC50 was 7 nM.

Ac-[αAllylPro]D[tBuAla][B5(5)]DDAAFQ[PyrS2][3Thi][Bta]H-NH2 (staple 1-4, 4-11) [I-1460] showed an IC50 of 7 nM.

With Ac-[αAllylPro]D[tBuAla][B5(5)]DDAAFQ[PyrS2][3Thi][Bta]H-NH2 (staple 1-4, 4-11) [I-1459], the IC50 worked out at 5 nM.

In the case of Ac-[αAllylPro]D[tBuAla][B5(3)]DD[MorphAsn]AFL[PyrS2″][3Thi][Bta]Q-NH2 (staple 1-4, 4-11) [I-1483], the IC50 is 22 nM. Against the preceding molecule, the IC50 is about 4.4-fold higher. For Ac-[αAllylPro]D[tBuAla][B5(4)]DD[(CH2NMe2)4SEF]AFL[PyrS2]F[Bta]Q (staple 1-4, 4-11) [I-1467], the IC50 worked out at 12 nM.

On to Ac-[αAllylPro]D[tBuAla][B5(4)]DDAAFL[PyrS2″][3Thi][Bta]QK([PEG2′-Lithocholoyl])-NH2 (staple 1-4, 4-11) [I-1478], for which the IC50 was 75 nM. As for Ac-[αAllylPro]D[tBuAla][B5(5)]DDAAFL[PyrS2″][3Thi][Bta]QK(Me3AdamantC)-NH2 (staple 1-4, 4-11) [I-1479], the IC50 is 173 nM. This IC50 lies about 2.3-fold higher than the previous one.

In the case of Ac-[αAllylPro]DK(Lithocholoyl)[B5(5)]DDAAFL[PyrS2][3Thi][Bta]Q-NH2 (staple 1-4, 4-11) [I-1469], the IC50 is 95 nM. Compared with the last molecule, the IC50 is about 1.8-fold lower.

For the molecule Ac-[αAllylPro]DK([PEG2′-Lithocholoyl])[B5(4)]DDAAFL[PyrS2][3Thi][Bta]Q-NH2 (staple 1-4, 4-11) [I-1470], the IC50 was determined as 57 nM. Against the preceding molecule, the IC50 is about 1.7-fold lower.

The molecule Ac-[αAllylPro]D[tBuAla][B5(4)]DDAK([PEG2′-Me3AdamantC])FL[PyrS2″][3Thi][Bta]Q-NH2 (staple 1-4, 4-11) [I-1476] showed a half-maximal inhibitory concentration (IC50) of 16 nM. The molecule Ac-[αAllylPro]D[tBuAla][B5(5)]DDAK(Lithocholoyl)FL[PyrS2][3Thi][Bta]Q-NH2 (staple 1-4, 4-11) [I-1473] gave an IC50 of 224 nM. In turn, Ac-[αAllylPro]D[tBuAla][B5(5)]DDAK(Me3AdamantC)FL[PyrS2″][3Thi][Bta]Q-NH2 (staple 1-4, 4-11) [I-1475] registered an IC50 of 113 nM.
